From patent US20250306026A1 (Dana-Farber, published 2025)
Bridge positions count the residues as written; N and C are the ends. Square brackets hold non-standard residues; d marks the D form. Ends that are not written are not given here. * marks the point of attachment. Biotin = O=C1N[C@H]2[C@H](CS[C@H]2CCCCC(=O)*)N1; S5 = C=CCCC[C@](C)(N)C(=O)O

Key:
[1] = biological target: recombinant VLCAD (mature human VLCAD lacking its cleavable leader sequence, aa 40-655, 10x His-tagged) (human) (UniProt P49748); assay: ITC, 200 µM Btn-peptide injected into 15 µM recombinant VLCAD, 25 °C, single binding site model
[2] = biological target: MCL-1 SAHBs that do not bind VLCAD
MCL-1 SAHBD = biological target: T1, MCL-1 SAHBD
T1 chain: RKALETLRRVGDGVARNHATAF

[3] = biological target: recombinant VLCAD (mature human VLCAD lacking its cleavable leader sequence, aa 40-655, 10x His-tagged) (human) (UniProt P49748); assay: biolayer interferometry; Biotin-PEG SAHB on streptavidin sensors, VLCAD in solution at the plotted concentrations
MCL-1ΔNΔC = MCL-1ΔNΔC (UniProt Q07820); assay: biolayer interferometry; Biotin-PEG SAHB on streptavidin sensors, MCL-1ΔNΔC in solution at the plotted concentrations
Sequence of MCL-1ΔNΔC (Q07820 172-320, stated change not applied): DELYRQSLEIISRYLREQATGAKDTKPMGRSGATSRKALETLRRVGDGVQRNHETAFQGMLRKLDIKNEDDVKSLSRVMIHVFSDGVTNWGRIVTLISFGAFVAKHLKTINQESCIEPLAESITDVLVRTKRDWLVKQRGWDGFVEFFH

MCAD = biological target: T2, MCAD (mouse, UniProt P45952 26-421); assay: streptavidin pull-down with biotinylated SAHB from cellular lysate; western blot for MCAD
T2 sequence (looked up): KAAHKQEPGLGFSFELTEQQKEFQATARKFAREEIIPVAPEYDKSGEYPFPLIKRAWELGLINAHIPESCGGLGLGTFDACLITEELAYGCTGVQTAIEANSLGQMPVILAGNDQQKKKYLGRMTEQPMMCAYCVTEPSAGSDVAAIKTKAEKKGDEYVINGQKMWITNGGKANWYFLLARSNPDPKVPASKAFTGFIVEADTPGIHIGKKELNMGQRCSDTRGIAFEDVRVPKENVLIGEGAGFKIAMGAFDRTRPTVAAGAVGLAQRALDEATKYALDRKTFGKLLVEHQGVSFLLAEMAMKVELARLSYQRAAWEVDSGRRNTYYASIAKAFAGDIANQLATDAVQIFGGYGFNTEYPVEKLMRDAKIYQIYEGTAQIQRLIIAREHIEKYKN
Source text: (§1) To validate the MS result, the pulldowns were repeated and eluates run on a gel for anti-VLCAD Western blot analysis. VLCAD was detected in the MCL-1 SAHBD pulldown eluate, confirming the MS results. […] All peptides faithfully recapitulated native BH3-binding propensities for endogenous MCL-1 protein (FIG. 8). The eluates were then probed for the other members of the acyl-CoA dehydrogenase family that manifest shorter fatty acid substrate specificities. MCL-1 SAHBD was able to pull down VLCAD, but not MCAD or SCAD (FIG. 9). Because the traditional MCL-1 staple location differs from that of the BIM, BID, and BAD SAHBs, it was important to confirm that the observed VLCAD binding specificity was due to BH3 sequence selectivity, not staple position. A BIM SAHB with the traditional MCL-1 staple (BIM SAHBF), and a MCL-1 stapled peptide with the traditional BIM staple (MCL-1 SAHBA), were generated. […]
(§2) Wild-type MEFs were trypsinized, washed once with cold PBS, and lysed on ice with NP-40 lysis buffer (50 mM Tris, pH 7.4, 150 mM NaCl, 0.5% (v/v) NP-40, complete protease inhibitor pellet (Roche)) using 1 ml of lysis buffer for every 10 million cells lysed. Cellular debris was pelleted at 14,000 g for 10 min at 4° C., and the supernatant was quantified using the BCA Protein Assay Kit (Thermo Fisher Scientific). […]

SCAD = biological target: T3, SCAD (mouse, UniProt Q07417 25-412); assay: streptavidin pull-down with biotinylated SAHB from cellular lysate; western blot for SCAD
T3 sequence (looked up): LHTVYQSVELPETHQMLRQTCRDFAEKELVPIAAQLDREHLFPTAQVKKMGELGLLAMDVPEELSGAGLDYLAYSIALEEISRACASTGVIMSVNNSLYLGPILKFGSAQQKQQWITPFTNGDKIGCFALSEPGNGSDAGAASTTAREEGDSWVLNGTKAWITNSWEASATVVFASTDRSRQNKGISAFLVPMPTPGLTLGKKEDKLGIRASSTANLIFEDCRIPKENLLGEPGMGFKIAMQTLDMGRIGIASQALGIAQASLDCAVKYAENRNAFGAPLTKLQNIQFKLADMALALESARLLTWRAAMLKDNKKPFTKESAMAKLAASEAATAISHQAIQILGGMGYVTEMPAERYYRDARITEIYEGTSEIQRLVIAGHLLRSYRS
Source text: as §1, §2

[4] = biological target: T4, native VLCAD (Very Long Chain Acyl CoA Dehydrogenase) from mouse embryonic fibroblast lysates (mouse, UniProt P50544 42-656); assay: streptavidin pull-down with biotinylated SAHB from MEF lysate; western blot for VLCAD, densitometry ratio mutant/WT
T4 construct: also called endogenous VLCAD of mouse liver mitochondria
T4 sequence (looked up): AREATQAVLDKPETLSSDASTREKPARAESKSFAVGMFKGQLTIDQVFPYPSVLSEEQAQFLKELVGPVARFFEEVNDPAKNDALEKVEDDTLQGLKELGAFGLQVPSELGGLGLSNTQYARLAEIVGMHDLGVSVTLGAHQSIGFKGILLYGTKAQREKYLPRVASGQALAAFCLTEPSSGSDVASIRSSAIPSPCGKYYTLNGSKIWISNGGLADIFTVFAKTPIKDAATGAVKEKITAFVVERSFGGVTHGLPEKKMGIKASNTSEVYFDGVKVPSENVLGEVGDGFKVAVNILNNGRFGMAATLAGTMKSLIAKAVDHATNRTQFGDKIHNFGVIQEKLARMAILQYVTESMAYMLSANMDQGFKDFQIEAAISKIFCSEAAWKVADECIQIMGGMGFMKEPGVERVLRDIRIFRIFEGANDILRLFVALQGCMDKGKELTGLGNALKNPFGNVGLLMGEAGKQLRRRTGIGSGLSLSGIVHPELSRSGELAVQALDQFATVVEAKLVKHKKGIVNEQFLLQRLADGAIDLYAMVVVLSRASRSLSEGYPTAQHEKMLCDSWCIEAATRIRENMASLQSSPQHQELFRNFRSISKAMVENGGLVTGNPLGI
Procedure: Wild-type MEFs were trypsinized, washed once with cold PBS, and lysed on ice with NP-40 lysis buffer (50 mM Tris, pH 7.4, 150 mM NaCl, 0.5% (v/v) NP-40, complete protease inhibitor pellet (Roche)) using 1 ml of lysis buffer for every 10 million cells lysed. Cellular debris was pelleted at 14,000 g for 10 min at 4° C., and the supernatant was quantified using the BCA Protein Assay Kit (Thermo Fisher Scientific). 2 mg of lysate per pulldown were then exposed to 50 μL of pre-equilibrated High Capacity Streptavidin Agarose beads (Thermo Fisher Scientific). […] The beads were then pelleted and washed with NP-40 lysis buffer three times before eluting the protein sample from the beads by heating at 70° C. for 10 min in SDS loading buffer. Samples were then subjected to electrophoresis and either Western analysis or Coomassie stain (SimplyBlue Safe Stain, Thermo Fisher Scientific). The antibodies used for Western analysis were the following: MCL-1 (Rockland 600-401-394; 1:1000 in 3% BSA), VLCAD (Thermo Fisher Scientific PA5-29959; 1:1000 in 1% milk+0.1% Tween-20), MCAD (Thermo Fisher Scientific PA5-27201; 1:1000 in 3% BSA), and SCAD (Abcam ab154823; 1:1000 in 3% BSA). Coomassie stained gels were then processed for proteomics analysis (see below). Biotinylated SAHB pulldowns of recombinant protein were performed as above incubating 5 nmol of SAHB with 10 pmol of rVLCAD in 500 μL total volume. […]

[5] = biological target: T4, native VLCAD (Very Long Chain Acyl CoA …); assay: DSS chemical crosslinking of intact mouse liver mitochondria, Western (FIG. 32)
Source text: To investigate the native interaction between VLCAD and MCL-1, intact mitochondria were isolated from mouse livers and exposed to the chemical crosslinker DSS. Vehicle or DSS-treated mitochondria were then lysed and the resultant lysate run on a reducing/denaturing gel.

B1: MCL-1 SAHBD V220A (peptide)
peptide: Biotin-RKALETLRRVGDGAARNH[S5]TAF
modifications: staple (positions not given here); not fully specified (residue 15, bridges); also: second staple residue not placed
[1]
  Kd: 1700 nM

B2: recombinant VLCAD (mature human VLCAD lacking its cleavable leader sequence, aa 40-655, 10x His-tagged) (protein)
chain: YAGGAAQLALDKSDSHPSDALTRKKPAKAESKSFAVGMFKGQLTTDQVFPYPSVLNEEQTQFLKELVEPVSRFFEEVNDPAKNDALEMVEETTWQGLKELGAFGLQVPSELGGVGLCNTQYARLVEIVGMHDLGVGITLGAHQSIGFKGILLFGTKAQKEKYLPKLASGETVAAFCLTEPSSGSDAASIRTSAVPSPCGKYYTLNGSKLWISNGGLADIFTVFAKTPVTDPATGAVKEKITAFVVERGFGGITHGPPEKKMGIKASNTAEVFFDGVRVPSENVLGEVGSGFKVAMHILNNGRFGMAAALAGTMRGIIAKAVDHATNRTQFGEKIHNFGLIQEKLARMVMLQYVTESMAYMVSANMDQGATDFQIEAAISKIFGSEAAWKVTDECIQIMGGMGFMKEPGVERVLRDLRIFRIFEGTNDILRLFVALQGCMDKGKELSGLGSALKNPFGNAGLLLGEAGKQLRRRAGLGSGLSLSGLVHPELSRSGELAVRALEQFATVVEAKLIKHKKGIVNEQFLLQRLADGAIDLYAMVVVLSRASRSLSEGHPTAQHEKMLCDTWCIEAAARIREGMAALQSDPWQQELYRNFKSISKALVERGGVVTSNPLGF
[2]
  VLCAD enzymatic activity (reduction of ferrocenium hexafluorophosphate with palmitoyl-CoA as substrate): an effect not observed when MCL-1 SAHBs that do not bind VLCAD were added
MCL-1 SAHBD
  VLCAD enzymatic activity (reduction of ferrocenium hexafluorophosphate with palmitoyl-CoA as substrate): Pre-incubation of VLCAD with MCL-1 SAHBD caused a decrease in enzymatic activity

B3: MCL-1 SAHBD (peptide)
peptide: RKALETLRRVGDGV[S5]RNH[S5]TAF
modifications: staple 15-19; also: derivatised forms: N-terminal biotin, Btn-PEG, fluorinated analog
notes: One entry for all derivatised forms (biotin, Btn-PEG, fluorinated, underivatised); the form used is named under assay in each row; also called Btn-MCL-1 SAHBD; Biotin-PEG-MCL-1 SAHBD
[3]
  EC50 (read off the curve): 3000 nM
MCL-1ΔNΔC
  EC50 (read off the curve): 200 nM
MCAD
  binding result: no binding
SCAD
  binding result: no binding

B4: MCL-1 SAHBD H224A (peptide)
peptide: RKALETLRRVGDGVARNAATAF
modifications: staple (positions not given here); not fully specified (residues 15, 19, bridges); also: biotinylated, site not given here
notes: MCL-1 numbering
[4]
  binding result: no binding

B5: endogenous MCL-1 protein from mouse embryonic fibroblasts (other, UniProt P97287 1-331, looked up)
chain: MFGLRRNAVIGLNLYCGGASLGAGGGSPAGARLVAEEAKARREGGGEAALLPGARVVARPPPVGAEDPDVTASAERRLHKSPGLLAVPPEEMAASAAAAIVSPEEELDGCEPEAIGKRPAVLPLLERVSEAAKSSGADGSLPSTPPPPEEEEDDLYRQSLEIISRYLREQATGSKDSKPLGEAGAAGRRALETLRRVGDGVQRNHETAFQGMLRKLDIKNEGDVKSFSRVMVHVFKDGVTNWGRIVTLISFGAFVAKHLKSVNQESFIEPLAETITDVLVRTKRDWLVKQRGWDGFVEFFHVQDLEGGIRNVLLAFAGVAGVGAGLAYLIR
notes: also called native MCL-1; endogenous/native MCL-1
[5]
  binding result: binds
